Experimental data published in patent US20150344570A1 (published 2015).

molecular target: T1, FcγRIIIa extracellular domain with C-terminal His tag (human, UniProt P08637 17-208); assay: SPR Biacore, captured antibody, FcγR analyte, relative binding
T1 construct: extracellular domain; also called FcgRIIIa; 3a; not shown: His tag attached to the C terminus
Protocol: Analysis of interaction between objective antibody and the FcγR was carried out using Biacore T100 (GE Healthcare). HBS-EP+ (GE Healthcare) was used as the running buffer, and the measurement temperature was set to 25° C. Chips produced by immobilizing the antigen peptide by the amine coupling method to a Series S Sencor Chip CM5 (GE Healthcare), or alternatively, chips produced by allowing preliminarily biotinylated antigen peptides to interact with and immobilize onto a Series S Sensor Chip SA (certified) (GE Healthcare) were used. Antibodies of interest were captured onto an antigen peptide-immobilized chip, and allowed to interact to each FcγR diluted with running buffer. To regenerate and repeatedly use the chip, the antibodies captured on the chip were washed off by reacting 10 mM glycine-HCl, pH 1.5.

T1 sequence (P08637 17-208): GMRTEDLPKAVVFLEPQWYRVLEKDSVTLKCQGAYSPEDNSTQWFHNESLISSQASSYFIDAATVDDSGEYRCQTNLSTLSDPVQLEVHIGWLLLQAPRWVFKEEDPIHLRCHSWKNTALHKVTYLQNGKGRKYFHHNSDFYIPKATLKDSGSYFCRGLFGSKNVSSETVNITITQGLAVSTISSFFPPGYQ

Binder	Ho/Con_3a
GpH7-B3 variant S337_10E/GpL16-k0 (antibody, human IgG1, kappa, also called Ho Ab S337_10E) heavy: not shown light: DIVMTQSPLSLPVTPGEPASISCQASESLVHSNRNTYLHWYLQKPGQSPQLLIYKVSNRFSGVPDRFSGSGSGTDFTLKISRVEAEDVGVYYCSQNTHVPPTFGQGTKVEIERTVAAPSVFIFPPSDEQLKSGTASVVCLLNNFYPREAKVQWKVDNALQSGNSQESVTEQDSKDSTYSLSSTLTLSKADYEKHKVYACEVTHQGLSSPVTKSFNRGEC	100 % of HoCon Ab GpH7-B3/GpL16-k0 (=100)
GpH7-B3 variant Q295_02A/GpL16-k0 (antibody, human IgG1, kappa, also called Ho Ab Q295_02A) heavy: not shown light: DIVMTQSPLSLPVTPGEPASISCQASESLVHSNRNTYLHWYLQKPGQSPQLLIYKVSNRFSGVPDRFSGSGSGTDFTLKISRVEAEDVGVYYCSQNTHVPPTFGQGTKVEIERTVAAPSVFIFPPSDEQLKSGTASVVCLLNNFYPREAKVQWKVDNALQSGNSQESVTEQDSKDSTYSLSSTLTLSKADYEKHKVYACEVTHQGLSSPVTKSFNRGEC	108 % of HoCon Ab GpH7-B3/GpL16-k0 (=100)
GpH7-B3 variant K334_10E/GpL16-k0 (antibody, human IgG1, kappa, also called Ho Ab K334_10E) heavy: not shown light: DIVMTQSPLSLPVTPGEPASISCQASESLVHSNRNTYLHWYLQKPGQSPQLLIYKVSNRFSGVPDRFSGSGSGTDFTLKISRVEAEDVGVYYCSQNTHVPPTFGQGTKVEIERTVAAPSVFIFPPSDEQLKSGTASVVCLLNNFYPREAKVQWKVDNALQSGNSQESVTEQDSKDSTYSLSSTLTLSKADYEKHKVYACEVTHQGLSSPVTKSFNRGEC	206 % of HoCon Ab GpH7-B3/GpL16-k0 (=100)
GpH7-B3 variant S337_18N/GpL16-k0 (antibody, human IgG1, kappa, also called Ho Ab S337_18N) heavy: not shown light: DIVMTQSPLSLPVTPGEPASISCQASESLVHSNRNTYLHWYLQKPGQSPQLLIYKVSNRFSGVPDRFSGSGSGTDFTLKISRVEAEDVGVYYCSQNTHVPPTFGQGTKVEIERTVAAPSVFIFPPSDEQLKSGTASVVCLLNNFYPREAKVQWKVDNALQSGNSQESVTEQDSKDSTYSLSSTLTLSKADYEKHKVYACEVTHQGLSSPVTKSFNRGEC	102 % of HoCon Ab GpH7-B3/GpL16-k0 (=100)
GpH7-B3 variant K334_19Q/GpL16-k0 (antibody, human IgG1, kappa, also called Ho Ab K334_19Q) heavy: not shown light: DIVMTQSPLSLPVTPGEPASISCQASESLVHSNRNTYLHWYLQKPGQSPQLLIYKVSNRFSGVPDRFSGSGSGTDFTLKISRVEAEDVGVYYCSQNTHVPPTFGQGTKVEIERTVAAPSVFIFPPSDEQLKSGTASVVCLLNNFYPREAKVQWKVDNALQSGNSQESVTEQDSKDSTYSLSSTLTLSKADYEKHKVYACEVTHQGLSSPVTKSFNRGEC	150 % of HoCon Ab GpH7-B3/GpL16-k0 (=100)
GpH7-B3 variant K334_09D/GpL16-k0 (antibody, human IgG1, kappa, also called Ho Ab K334_09D) heavy: not shown light: DIVMTQSPLSLPVTPGEPASISCQASESLVHSNRNTYLHWYLQKPGQSPQLLIYKVSNRFSGVPDRFSGSGSGTDFTLKISRVEAEDVGVYYCSQNTHVPPTFGQGTKVEIERTVAAPSVFIFPPSDEQLKSGTASVVCLLNNFYPREAKVQWKVDNALQSGNSQESVTEQDSKDSTYSLSSTLTLSKADYEKHKVYACEVTHQGLSSPVTKSFNRGEC	150 % of HoCon Ab GpH7-B3/GpL16-k0 (=100)
GpH7-B3 variant S298_14T/GpL16-k0 (antibody, human IgG1, kappa, also called Ho Ab S298_14T) heavy: not shown light: DIVMTQSPLSLPVTPGEPASISCQASESLVHSNRNTYLHWYLQKPGQSPQLLIYKVSNRFSGVPDRFSGSGSGTDFTLKISRVEAEDVGVYYCSQNTHVPPTFGQGTKVEIERTVAAPSVFIFPPSDEQLKSGTASVVCLLNNFYPREAKVQWKVDNALQSGNSQESVTEQDSKDSTYSLSSTLTLSKADYEKHKVYACEVTHQGLSSPVTKSFNRGEC	107 % of HoCon Ab GpH7-B3/GpL16-k0 (=100)
GpH7-B3 variant K334_15Y/GpL16-k0 (antibody, human IgG1, kappa, also called Ho Ab K334_15Y) heavy: not shown light: DIVMTQSPLSLPVTPGEPASISCQASESLVHSNRNTYLHWYLQKPGQSPQLLIYKVSNRFSGVPDRFSGSGSGTDFTLKISRVEAEDVGVYYCSQNTHVPPTFGQGTKVEIERTVAAPSVFIFPPSDEQLKSGTASVVCLLNNFYPREAKVQWKVDNALQSGNSQESVTEQDSKDSTYSLSSTLTLSKADYEKHKVYACEVTHQGLSSPVTKSFNRGEC	181 % of HoCon Ab GpH7-B3/GpL16-k0 (=100)
GpH7-B3 variant T335_07I/GpL16-k0 (antibody, human IgG1, kappa, also called Ho Ab T335_07I) heavy: not shown light: DIVMTQSPLSLPVTPGEPASISCQASESLVHSNRNTYLHWYLQKPGQSPQLLIYKVSNRFSGVPDRFSGSGSGTDFTLKISRVEAEDVGVYYCSQNTHVPPTFGQGTKVEIERTVAAPSVFIFPPSDEQLKSGTASVVCLLNNFYPREAKVQWKVDNALQSGNSQESVTEQDSKDSTYSLSSTLTLSKADYEKHKVYACEVTHQGLSSPVTKSFNRGEC	107 % of HoCon Ab GpH7-B3/GpL16-k0 (=100)
GpH7-B3 variant S267_09D/GpL16-k0 (antibody, human IgG1, kappa, also called Ho Ab S267_09D) heavy: not shown light: DIVMTQSPLSLPVTPGEPASISCQASESLVHSNRNTYLHWYLQKPGQSPQLLIYKVSNRFSGVPDRFSGSGSGTDFTLKISRVEAEDVGVYYCSQNTHVPPTFGQGTKVEIERTVAAPSVFIFPPSDEQLKSGTASVVCLLNNFYPREAKVQWKVDNALQSGNSQESVTEQDSKDSTYSLSSTLTLSKADYEKHKVYACEVTHQGLSSPVTKSFNRGEC	160 % of HoCon Ab GpH7-B3/GpL16-k0 (=100)
GpH7-B3 variant K334_18N/GpL16-k0 (antibody, human IgG1, kappa, also called Ho Ab K334_18N) heavy: not shown light: DIVMTQSPLSLPVTPGEPASISCQASESLVHSNRNTYLHWYLQKPGQSPQLLIYKVSNRFSGVPDRFSGSGSGTDFTLKISRVEAEDVGVYYCSQNTHVPPTFGQGTKVEIERTVAAPSVFIFPPSDEQLKSGTASVVCLLNNFYPREAKVQWKVDNALQSGNSQESVTEQDSKDSTYSLSSTLTLSKADYEKHKVYACEVTHQGLSSPVTKSFNRGEC	156 % of HoCon Ab GpH7-B3/GpL16-k0 (=100)

Other lines, results leading:

Ho/Con_3a	Binder
178 % of HoCon Ab GpH7-B3/GpL16-k0 (=100)	GpH7-B3 variant K334_08L/GpL16-k0 (antibody, human IgG1, kappa, also called Ho Ab K334_08L) heavy: not shown light: DIVMTQSPLSLPVTPGEPASISCQASESLVHSNRNTYLHWYLQKPGQSPQLLIYKVSNRFSGVPDRFSGSGSGTDFTLKISRVEAEDVGVYYCSQNTHVPPTFGQGTKVEIERTVAAPSVFIFPPSDEQLKSGTASVVCLLNNFYPREAKVQWKVDNALQSGNSQESVTEQDSKDSTYSLSSTLTLSKADYEKHKVYACEVTHQGLSSPVTKSFNRGEC
102 % of HoCon Ab GpH7-B3/GpL16-k0 (=100)	GpH7-B3 variant T335_10E/GpL16-k0 (antibody, human IgG1, kappa, also called Ho Ab T335_10E) heavy: not shown light: DIVMTQSPLSLPVTPGEPASISCQASESLVHSNRNTYLHWYLQKPGQSPQLLIYKVSNRFSGVPDRFSGSGSGTDFTLKISRVEAEDVGVYYCSQNTHVPPTFGQGTKVEIERTVAAPSVFIFPPSDEQLKSGTASVVCLLNNFYPREAKVQWKVDNALQSGNSQESVTEQDSKDSTYSLSSTLTLSKADYEKHKVYACEVTHQGLSSPVTKSFNRGEC
192 % of HoCon Ab GpH7-B3/GpL16-k0 (=100)	GpH7-B3 variant S239_09D/GpL16-k0 (antibody, human IgG1, kappa, also called Ho Ab S239_09D) heavy: not shown light: DIVMTQSPLSLPVTPGEPASISCQASESLVHSNRNTYLHWYLQKPGQSPQLLIYKVSNRFSGVPDRFSGSGSGTDFTLKISRVEAEDVGVYYCSQNTHVPPTFGQGTKVEIERTVAAPSVFIFPPSDEQLKSGTASVVCLLNNFYPREAKVQWKVDNALQSGNSQESVTEQDSKDSTYSLSSTLTLSKADYEKHKVYACEVTHQGLSSPVTKSFNRGEC
145 % of HoCon Ab GpH7-B3/GpL16-k0 (=100)	GpH7-B3 variant S267_02A/GpL16-k0 (antibody, human IgG1, kappa, also called Ho Ab S267_02A) heavy: not shown light: DIVMTQSPLSLPVTPGEPASISCQASESLVHSNRNTYLHWYLQKPGQSPQLLIYKVSNRFSGVPDRFSGSGSGTDFTLKISRVEAEDVGVYYCSQNTHVPPTFGQGTKVEIERTVAAPSVFIFPPSDEQLKSGTASVVCLLNNFYPREAKVQWKVDNALQSGNSQESVTEQDSKDSTYSLSSTLTLSKADYEKHKVYACEVTHQGLSSPVTKSFNRGEC
106 % of HoCon Ab GpH7-B3/GpL16-k0 (=100)	GpH7-B3 variant S337_09D/GpL16-k0 (antibody, human IgG1, kappa, also called Ho Ab S337_09D) heavy: not shown light: DIVMTQSPLSLPVTPGEPASISCQASESLVHSNRNTYLHWYLQKPGQSPQLLIYKVSNRFSGVPDRFSGSGSGTDFTLKISRVEAEDVGVYYCSQNTHVPPTFGQGTKVEIERTVAAPSVFIFPPSDEQLKSGTASVVCLLNNFYPREAKVQWKVDNALQSGNSQESVTEQDSKDSTYSLSSTLTLSKADYEKHKVYACEVTHQGLSSPVTKSFNRGEC
153 % of HoCon Ab GpH7-B3/GpL16-k0 (=100)	GpH7-B3 variant K334_13S/GpL16-k0 (antibody, human IgG1, kappa, also called Ho Ab K334_13S) heavy: not shown light: DIVMTQSPLSLPVTPGEPASISCQASESLVHSNRNTYLHWYLQKPGQSPQLLIYKVSNRFSGVPDRFSGSGSGTDFTLKISRVEAEDVGVYYCSQNTHVPPTFGQGTKVEIERTVAAPSVFIFPPSDEQLKSGTASVVCLLNNFYPREAKVQWKVDNALQSGNSQESVTEQDSKDSTYSLSSTLTLSKADYEKHKVYACEVTHQGLSSPVTKSFNRGEC
108 % of HoCon Ab GpH7-B3/GpL16-k0 (=100)	GpH7-B3 variant Q295_14T/GpL16-k0 (antibody, human IgG1, kappa, also called Ho Ab Q295_14T) heavy: not shown light: DIVMTQSPLSLPVTPGEPASISCQASESLVHSNRNTYLHWYLQKPGQSPQLLIYKVSNRFSGVPDRFSGSGSGTDFTLKISRVEAEDVGVYYCSQNTHVPPTFGQGTKVEIERTVAAPSVFIFPPSDEQLKSGTASVVCLLNNFYPREAKVQWKVDNALQSGNSQESVTEQDSKDSTYSLSSTLTLSKADYEKHKVYACEVTHQGLSSPVTKSFNRGEC
153 % of HoCon Ab GpH7-B3/GpL16-k0 (=100)	GpH7-B3 variant K334_16H/GpL16-k0 (antibody, human IgG1, kappa, also called Ho Ab K334_16H) heavy: not shown light: DIVMTQSPLSLPVTPGEPASISCQASESLVHSNRNTYLHWYLQKPGQSPQLLIYKVSNRFSGVPDRFSGSGSGTDFTLKISRVEAEDVGVYYCSQNTHVPPTFGQGTKVEIERTVAAPSVFIFPPSDEQLKSGTASVVCLLNNFYPREAKVQWKVDNALQSGNSQESVTEQDSKDSTYSLSSTLTLSKADYEKHKVYACEVTHQGLSSPVTKSFNRGEC
163 % of HoCon Ab GpH7-B3/GpL16-k0 (=100)	GpH7-B3 variant K334_14T/GpL16-k0 (antibody, human IgG1, kappa, also called Ho Ab K334_14T) heavy: not shown light: DIVMTQSPLSLPVTPGEPASISCQASESLVHSNRNTYLHWYLQKPGQSPQLLIYKVSNRFSGVPDRFSGSGSGTDFTLKISRVEAEDVGVYYCSQNTHVPPTFGQGTKVEIERTVAAPSVFIFPPSDEQLKSGTASVVCLLNNFYPREAKVQWKVDNALQSGNSQESVTEQDSKDSTYSLSSTLTLSKADYEKHKVYACEVTHQGLSSPVTKSFNRGEC
111 % of HoCon Ab GpH7-B3/GpL16-k0 (=100)	GpH7-B3 variant Q295_10E/GpL16-k0 (antibody, human IgG1, kappa, also called Ho Ab Q295_10E) heavy: not shown light: DIVMTQSPLSLPVTPGEPASISCQASESLVHSNRNTYLHWYLQKPGQSPQLLIYKVSNRFSGVPDRFSGSGSGTDFTLKISRVEAEDVGVYYCSQNTHVPPTFGQGTKVEIERTVAAPSVFIFPPSDEQLKSGTASVVCLLNNFYPREAKVQWKVDNALQSGNSQESVTEQDSKDSTYSLSSTLTLSKADYEKHKVYACEVTHQGLSSPVTKSFNRGEC
